# Assays:
# Test in all cases: cell_activity
# Settings in all cases: TALEN pair
# [1] = tested on: GmFAD3_T03 TALEN right monomer (synthetic)
# [2] = tested on: GmFAD3_T02 TALEN right monomer (synthetic)
# [3] = tested on: GmFAD3_T01 TALEN right monomer (synthetic)
# [4] = tested on: GmFAD3_T01 TALEN left monomer (synthetic)
# [5] = tested on: GmFAD3_T03 TALEN left monomer (synthetic)
# [6] = tested on: GmFAD3_T02 TALEN left monomer (synthetic)
# [7] = soybean protoplasts, text p95 gives 2.39
sequence,measurement,setting,value
ACAAAATCATGGACAC (double strand) [FAD3A_T03 right],activity,[1]; [7],4.4 % NHEJ
ACTCAATTCTTGTGCC (double strand) [FAD3A_T02 right],activity,[2]; soybean protoplasts,14.5 % NHEJ
AGGAAGCTTTTCAGAC (double strand) [FAD3A_T01 right],activity,[3]; soybean protoplasts,10.2 % NHEJ
ATGGTTAAAGACACAAAGCCTTTAGCCTATGCTGCCAATAATGGATACCAACAAAAGGGTTCTTCTTTTGATTTTGATCCTAGCGCTCCTCCACCGTTTAAGATTGCAGAAATCAGAGCTTCAATACCAAAACATTGCTGGGTCAAGAATCCATGGAGATCCCTCAGTTATGTTCTCAGGGATGTGCTTGTAATTGCTGCATTGGTGGCTGCAGCAATTCACTTCGACAACTGGCTTCTCTGGCTAATCTATTGCCCCATTCAAGGCACAATGTTCTGGGCTCTCTTTGTTCTTGGACATGATTGGTAATAATTTTTGTGTTTCTTACTCTTTTTTTTTTTTTTTTGTTTATGATATGAATCTCACACATTGTTCTGTTATGTCATTTCTTCTTCATTTGGCTTTAGACAACTTAAATTTGAGATCTTTATTATGTTTTTGCTTATATGGTAAAGTGATTCTTCATTATTTCATTCTTCATTGATTGAATTGAACAGTGGCCATGGAAGCTTTTCAGATAGCCCTTTGCTGAATAGCCTGGTGGGACACATCTTGCATTCCTCAATTCTTGTGCCATACCATGGATGGTTAGTTCATACTGGCTTTTTTGTTTGTTCATTTGTCATTGAAAAAAAATCTTTTGTTGATTCAATTATTTTTATAGTGTGTTTGGAAGCCCGTTTGAGAAAATAAGAAATCGCATCTGGAATGTGAAAGTTATAACTATTTAGCTTCATCTGTCGTTGCAAGTTCTTTTATTGGTTAAATTTTTATAGCGTGCTAGGAAACCCATTCGAGAAAATAAGAAATCACATCTGGAATGTGAAAGTTATAACTGTTAGCTTCTGAGTAAACGTGGAAAAACCACATTTTGGATTTGGAACCAAATTTTATTTGATAAATGACAACCAAATTGATTTTGATGGATTTTGCAGGAGAATTAGCCACAGAACTCACCATCAAAACCATGGACACATTGAGAAGGATGAGTCATGGGTTCCA (double strand) [FAD3B gene],activity,[3]; FAD3B off-target,1.48 % NHEJ
same,activity,[4]; FAD3B off-target,1.48 % NHEJ
same,activity,[5]; FAD3B off-target,2.39 % NHEJ
same,activity,[1]; FAD3B off-target,2.39 % NHEJ
ATGGTTCAAGCACAGCCTCTACAACATGTTGGTAATGGTGCAGGGAAAGAAGATCAAGCTTATTTTGATCCAAGTGCTCCACCACCCTTCAAGATTGCAAATATCAGAGCAGCAATTCCAAAACATTGCTGGGAGAAGAACACATTGAGATCTCTGAGTTATGTTCTGAGGGATGTGTTGGTAGTGACTGCATTGGTAGCTGCAGCAATCGGCTTCAATAGCTGGTTCTTCTGGCCACTCTATTGGCCTGCACAAGGCACAATGTTTTGGGCACTTTTTGTTCTTGGACATGATTGGTAACTAATTATTATTACAAATTGTTATGTTATGTTATGTTATGTTGTTGTGCCTTTTTCTCAGTGATGCTTTAGTCATTTCATTTCACTTGGTTATGCATGATTGTTCGTTCATATGTTCTGTCATGGTGAGTTCTAATTTGATTGATGCATGGAACAGTGGTCATGGAAGTTTTTCAAACAGTCCTTTGTTGAACAGCATTGTGGGCCACATCTTGCACTCTTCAATTCTTGTACCATACCATGGATGGTCGGTTCCTTTTAGCAACTTTTCATGTTCACTTTGTCCTTAAATTTTTTTTTATGTTTGTTAAAAAATCTTTGGTCTGATTTAACAACCTAACCATTTTTACAACTCATGGATTTTTTGCAGGAGAATTAGCCACAGGACTCACCATCAGAACCATGGCCATGTTGAGAAGGATGAATCATGGGTTCCG (double strand) [FAD3C gene],activity,[3]; FAD3C off-target,0.04 % NHEJ
same,activity,[4]; FAD3C off-target,0.04 % NHEJ
same,activity,[5]; FAD3C off-target,0.17 % NHEJ
same,activity,[6]; FAD3C off-target,0.01 % NHEJ
same,activity,[2]; FAD3C off-target,0.01 % NHEJ
same,activity,[1]; FAD3C off-target,0.17 % NHEJ
CCTCAATTCTTGTGCC (double strand) [FAD3B T02 right site],activity,[2]; FAD3B off-target,8.81 % NHEJ
CTAAATAGCCTGGTGT (double strand) [FAD3A_T02 left],activity,[6]; soybean protoplasts,14.5 % NHEJ
CTGAATAGCCTGGTGG (double strand) [FAD3B T02 left site],activity,[6]; FAD3B off-target,8.81 % NHEJ
TCATTCTTCACATTGT (double strand) [FAD3A_T01 left],activity,[4]; soybean protoplasts,10.2 % NHEJ
TTTGCAGGAGAATTAT (double strand) [FAD3A_T03 left],activity,[5]; [7],4.4 % NHEJ
